Laboratory results taken from US20120264693A1, “COMPOUNDS ACTING AS PEPTIDE GAP JUNCTION MODULATORS, AND USES THEREOF” (Zealand Pharma A/S, priority 2009, published 2012).

Assays:
Cx43 [1] = molecular target: T1, Cx43 (Homo sapiens, UniProt P17302); assay: Octanol-induced uncoupling, dual-cell patch clamp, junctional conductance (Gj) in Cx43-expressing N2A cell pairs; type: cell-based, mouse; conditions: for cells remaining coupled ten minutes after the onset of octanol superfusion: peptide 100 μM in pipette, 1.5 mM octanol, 10 min; for effect on octanol-induced decrease of Gj compared to control (in words): 1.5 mM octanol perfusion
T1 construct: expressed in transfected cells; host or cells: N2a (mouse neuroblastoma) cells, transiently transfected
Procedure: FIG. 2. Time course of octanol-induced uncoupling in human Cx43-expressing N2A cells. Cell pairs were recorded with patch pipettes that contained either ZP2778 (0.1 mM; upper curve/trace), or only the internal pipette filling solution (control; lower curve/trace). Experiments were conducted using the dual-cell patch clamp technique, and 1.5 mM octanol perfusion was started at Time=0.
(§1) Patch clamp experiments were conducted in N2a cells transiently transfected with Cx43. In all cases, the dual-whole-cell voltage clamp technique was used to record gap junction currents. Specifics for cell culture, transfection and recordings are described in Shibayama et al. (Identification of a novel peptide that interferes with the chemical regulation of connexin 43. Circ Res 2006 98:1365-72). Octanol superfusion was initiated 5 minutes after patch break and continued for 10 minutes. Concentration of octanol was 1.5 mM in all experiments. Peptides were diluted in the internal pipette solution to a final concentration of 100 μM. A total of 20 experiments were carried out where octanol-induced uncoupling was tested in the absence of peptides. These experiments were averaged, and data used as control for comparison with those series where a given peptide was assessed. Patch clamp experiments were also conducted (cf. FIG. 6 herein) using ventricular myocytes from neonatal Sprague-Dawley rats (rats supplied by Charles River, Mass. USA), isolated and cultured according to Rohr et al. (see Circ. Res. 1991; 68: 114-130, and J. Cardiovasc. Electrophysiol. 1995; 6: 551-568).
Junctional conductance (Gj) was measured in N2a cell pairs expressing Cx43. Patch pipettes were filled with an internal solution containing the specific peptide under study, and the time course and extent of octanol-induced uncoupling was compared to that observed in the absence of the peptide. FIGS. 2-5 show average measurements of junctional conductance and percent of coupled cells recorded at various times after the onset of octanol superfusion for the cyclized peptides ZP2769, ZP2771, ZP2778, ZP2782 and for the dissolution medium (internal pipette solution) used as control. […] For ZP2778 (FIG. 2), 60% of the cells remained coupled, while 20% remained coupled for ZP2782 (FIG. 4).

[2] = system: neonatal rat ventricular cardiac myocytes; assay: Acidification-induced uncoupling (pH 6.2), dual-cell patch clamp in neonatal rat ventricular cardiac myocytes; type: cell-based; conditions: peptide 0.1 mM buffered to pH 6.2
Procedure: Lower graph: Time course of acidification-induced uncoupling in neonatal rat ventricular cardiac myocytes. Cell pairs were recorded with patch pipettes that contained (i) ZP2771 (0.1 mM, buffered to pH 6.2; uppermost curve; filled square symbols), (ii) linear peptide RRPPYR (0.1 mM buffered to pH 6.2; middle curve; filled triangle symbols), or (iii) only the internal pipette filling solution buffered to pH 6.2 (lowermost curve; filled circle symbols). Experiments were conducted using the dual-cell patch clamp technique.
as §1

Cx43 [3] = molecular target: T1, Cx43; assay: Acidification-induced uncoupling (pH 6.2), dual-cell patch clamp in Cx43-expressing N2A cell pairs; conditions: peptide 0.1 mM in patch pipette, N2A cells
Procedure: FIG. 6. Upper graph: Time course of acidification-induced uncoupling in human Cx43-expressing N2A cells. Cell pairs were recorded with patch pipettes that contained either ZP2771 (0.1 mM; upper curve), or only the internal pipette filling solution buffered to pH 6.2 (control; lower curve). Experiments were conducted using the dual-cell patch clamp technique.
as §1, with “Patch clamp experiments were also conducted (cf. FIG. 6 herein) using ventricular myocytes from neonatal Sprague-Dawley rats (rats supplied by Charles River, Mass. USA), isolated and cultured according to Rohr et al. (see Circ. Res. 1991; 68: 114-130, and J. Cardiovasc. Electrophysiol. 1995; 6: 551-568).” left out

recombinant rat Cx43CT = recombinant rat Cx43CT (Rattus norvegicus, UniProt P08050); assay: Surface plasmon resonance (SPR) binding of peptides to immobilised Cx43CT; conditions: for binding to the Cx43CT (in words): SPR, FIG. 1 / Table 2; for (ru * 100)/Mw: response normalised to molecular weight
Source text: FIG. 1. SPR results for compounds (peptides) ZP2769 and ZP2771. Recombinant rat Cx43CT was covalently bound to a carboxylmethyl dextran matrix and used as ligand. Peptides were presented to the bound ligand, and the amplitude of the response was subtracted from that obtained from a control chamber with no ligand. If no change in angle of resonance was observed, this was taken as an indication of absence of binding. The amplitude of the change in angle of resonance (expressed as “response units”) is a function of the molecular mass of the analyte, and for comparison purposes response units were therefore normalized taking into account the molecular weight of the tested compound. Change in angle of incidence of resonance (in “resonance units”) was plotted against time after onset of cyclic peptide exposure. The various curves correspond to different applied concentrations of the peptide in question, as follows:
Compounds of the present invention may be tested for binding to the carboxyl terminal domain of Cx43 using Surface Plasmon Resonance (“SPR”). SPR is a technique that was used to identify the original RXPE sequence (Shibayama et al., “Identification of a Novel Peptide that Interferes with the Chemical Regulation of Connexin-43,” Circ. Res. 98:1365-72 (2006)). The concentration of the compound relative to the amplitude of the response in arbitrary units is measured.
Recombinant Cx43CT is covalently bound to a carboxylmethyl dextran matrix (Salemon et al., “Surface Plasmon Resonance Spectroscopy as a Tool for Investigating the Biochemical and Biophysical Properties of Membrane Protein Systems. II: Applications to Biological Systems,” Biochim. Biophys. Acta 1331(2):131-152 (1997)). Specific peptide compounds are presented and, when feasible, dissociation constants (KD) are calculated from the time course of binding and unbinding of the ligand, using a 1:1 (Langmuir) association and dissociation kinetic model (Biacore software package). In both phases (association and dissociation), the first 5-8 seconds of recording are not included in the fit, to avoid artifacts resulting from peptide distribution within the flow cells (Lang et al., “Surface Plasmon Resonance as a Method to Study the Kinetics and Amplitude of Protein-protein Binding,” in Practical Methods in Cardiovascular Research 936-947 (Stefan Dhein, Friedrich Wilhelm Mohr & Mario Delmar eds., 2005). In the present experiments recombinant rat Cx43CT was covalently bound to a carboxylmethyl-dextran matrix and used as ligand.
Examples of the cyclic peptide compounds of the present invention were presented to the bound ligand, and the amplitude of the response was subtracted from that obtained from a control chamber with no ligand. No change in angle of resonance was taken as an indication of absence of binding. The amplitude of the change in angle of resonance (expressed as “response units”) is a function of the molecular mass of the analyte and for comparison purposes response units were normalized taking account of the molecular weight of the tested compound. Change in angle of incidence of resonance (in “resonance units”) was plotted against time after onset of cyclic peptide exposure.
SPR allows for assessment of ligand-analyte binding in real time, and was used for characterization of two of the cyclic peptide compounds of the present invention. Cx43CT was covalently bound to the matrix of a sensor chip. […] In FIG. 1, the change in angle of incidence of resonance (in “resonance units”) is plotted against time after onset of cyclic peptide exposure. Different concentrations were applied, as indicated.

[4] = peptide 0.1 mM in patch pipette

T1 sequence (P17302 2-382 limits assumed): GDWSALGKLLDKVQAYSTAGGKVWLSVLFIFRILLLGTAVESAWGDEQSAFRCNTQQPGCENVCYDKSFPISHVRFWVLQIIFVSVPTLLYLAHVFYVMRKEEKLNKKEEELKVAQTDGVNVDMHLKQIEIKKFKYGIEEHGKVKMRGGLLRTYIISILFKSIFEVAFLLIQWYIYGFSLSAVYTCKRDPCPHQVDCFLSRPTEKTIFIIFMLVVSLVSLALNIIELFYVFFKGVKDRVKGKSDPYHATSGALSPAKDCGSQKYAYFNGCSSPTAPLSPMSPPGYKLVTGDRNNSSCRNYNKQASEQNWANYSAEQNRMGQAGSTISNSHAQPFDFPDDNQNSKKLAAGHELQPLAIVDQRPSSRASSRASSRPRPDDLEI
recombinant rat Cx43CT, sequence (P08050 229-382 limits assumed): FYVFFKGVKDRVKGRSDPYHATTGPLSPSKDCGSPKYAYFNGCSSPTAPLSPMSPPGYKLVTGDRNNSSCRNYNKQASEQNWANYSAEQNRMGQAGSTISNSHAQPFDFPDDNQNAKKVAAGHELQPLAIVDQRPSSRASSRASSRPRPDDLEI

Row | Substance | cells remaining coupled ten minutes after the onset of octanol superfusion (Cx43 [1]) | effect on octanol-induced decrease of Gj compared to control (in words) (Cx43 [1]; [4]) | Gj fifteen minutes after patch break [2] | binding to the Cx43CT (in words) (recombinant rat Cx43CT) | Resonance Units (ru) (recombinant rat Cx43CT; peptide conc 0.063 mM) | (ru * 100)/Mw (recombinant rat Cx43CT; peptide conc 0.063 mM) | Resonance Units (ru) (recombinant rat Cx43CT; peptide conc 0.125 mM) | (ru * 100)/Mw (recombinant rat Cx43CT; peptide conc 0.125 mM) | Resonance Units (ru) (recombinant rat Cx43CT; peptide conc 0.250 mM) | (ru * 100)/Mw (recombinant rat Cx43CT; peptide conc 0.250 mM) | Resonance Units (ru) (recombinant rat Cx43CT; peptide conc 0.500 mM) | (ru * 100)/Mw (recombinant rat Cx43CT; peptide conc 0.500 mM) | Resonance Units (ru) (recombinant rat Cx43CT; peptide conc 1.000 mM) | (ru * 100)/Mw (recombinant rat Cx43CT; peptide conc 1.000 mM) | also measured
1 | Cyclo(RRPPYRQ) (cyclic) [ZP2771] | all cells remained coupled | significantly (p<0.05) prevented the decrease of Gj | approximately 0.47 | significant binding | 192.4 | 20.18 | 323.6 | 33.94 | 574.0 | 60.20 | 896.0 | 93.97 | 1253.0 | 131.41 | Gj at the end of the experiment (Cx43 [1]; peptide 0.1 mM in patch pipette, after 10 minutes of 1.5 mM octanol perfusion): approximately 0.65; effect on acidification-induced decrease of Gj compared to linear peptide and control (in words) [2]: significantly (p=0.006) prevented the decrease of Gj; Gj fifteen minutes (900 sec) after patch break (Cx43 [3]): approximately 0.49; effect on acidification-induced decrease of Gj compared to control (in words) (Cx43 [3]): significantly (p=0.002) prevented the decrease of Gj; Resonance Units (ru) (recombinant rat Cx43CT; peptide conc 0.008 mM): 27.6 ru; (ru * 100)/Mw (recombinant rat Cx43CT; peptide conc 0.008 mM): 2.89; Resonance Units (ru) (recombinant rat Cx43CT; peptide conc 0.016 mM): 58.1 ru; (ru * 100)/Mw (recombinant rat Cx43CT; peptide conc 0.016 mM): 6.09; Resonance Units (ru) (recombinant rat Cx43CT; peptide conc 0.031 mM): 95.8 ru; (ru * 100)/Mw (recombinant rat Cx43CT; peptide conc 0.031 mM): 10.05
2 | RRPPYR [reference compound] | – | – | approximately 0.17 | – | – | – | – | – | – | – | – | – | – | – | –
3 | cyclo(RRPPWN) [ZP2782] | 20% | reduction in the decrease of Gj | – | – | – | – | – | – | – | – | – | – | – | – | –
4 | cyclo(RRPPYN) [ZP2778] | 60% | significantly (p<0.05) prevented the decrease of Gj | – | – | – | – | – | – | – | – | – | – | – | – | –
5 | cyclo(RRPPYQ) [ZP2769] | all cells remained coupled | marked reduction in the decrease of Gj | – | significant binding | 18.6 | 2.33 | 29.6 | 3.71 | 55.8 | 6.99 | 101.9 | 12.77 | 196.2 | 24.59 | –
